Results on 125 sequences are retold here after the supplement of paper PMC9112550, “Optimization of the antimicrobial peptide Bac7 by deep mutational scanning” (BMC Biology, 2022).

The subject of the series is Escherichia coli TOP10. As to the kind of experiment: shrunken log2 fold change of peptide-encoding DNA abundance (4.5 h post-induction vs induction); higher = less antimicrobial activity (less host growth inhibition). To be noted: time post-induction: 4.5 h; library: site-saturation at positions 5, 18, 19, 20.
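Note: peptides expressed intracellularly from a pBAD plasmid library in pooled LB shake-flask culture, induced with 0.3% L-arabinose, DNA abundance read by NGS, three biological replicates, DESeq2 with apeglm shrinkage.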

Consider RRIRARPPRLPRPRPRPFAGPRP, for which the “shrunken log2 fold change” value is 0.0859.

With RRIRPRPPRLPRPRPRPTQHPRP, the “shrunken log2 fold change” value is 0.262.

As to RRIRKRPPRLPRPRPRPWLMPRP, the “shrunken log2 fold change” value was determined as 0.0931.

Turning to RRIRYRPPRLPRPRPRPGFVPRP, the “shrunken log2 fold change” value is 0.0168.

On to RRIRYRPPRLPRPRPRPSGRPRP, for which the “shrunken log2 fold change” value was -0.261.

Regarding RRIRERPPRLPRPRPRPDMKPRP, the “shrunken log2 fold change” value is 0.0475.

RRIRSRPPRLPRPRPRPTYGPRP: the “shrunken log2 fold change” value was -0.303.

In the case of RRIRRRPPRLPRPRPRPVEEPRP, the “shrunken log2 fold change” value turned out to be 0.105.

As for RRIRKRPPRLPRPRPRPRIPPRP, the “shrunken log2 fold change” value was found to be 0.11.

For the sequence RRIRDRPPRLPRPRPRPKHPPRP, the “shrunken log2 fold change” value worked out at 0.0483.

On to RRIRFRPPRLPRPRPRPSVSPRP, for which the “shrunken log2 fold change” value is -0.2.

In the case of RRIRERPPRLPRPRPRPDQVPRP, the “shrunken log2 fold change” value is -0.148.

On to RRIRHRPPRLPRPRPRPFPNPRP, for which the “shrunken log2 fold change” value is -0.0913.

With RRIRSRPPRLPRPRPRPKPEPRP, the “shrunken log2 fold change” value was -0.01.

Regarding RRIRWRPPRLPRPRPRPEFAPRP, the “shrunken log2 fold change” value came to 1.02.

As to RRIRVRPPRLPRPRPRPKGLPRP, the “shrunken log2 fold change” value is -0.239.

In the case of RRIRSRPPRLPRPRPRPTGEPRP, the “shrunken log2 fold change” value came out at 0.0361.

As to RRIRGRPPRLPRPRPRPGPHPRP, the “shrunken log2 fold change” value turned out to be 0.57.

On to RRIRHRPPRLPRPRPRPKVMPRP, for which the “shrunken log2 fold change” value came to 0.0163.

For the sequence RRIRRRPPRLPRPRPRPQTSPRP, the “shrunken log2 fold change” value turned out to be 0.24.

As to RRIRGRPPRLPRPRPRPFLHPRP, the “shrunken log2 fold change” value was found to be 0.0811.

Consider RRIRARPPRLPRPRPRPVMYPRP, for which the “shrunken log2 fold change” value was 0.0749.

As to RRIRMRPPRLPRPRPRPWDMPRP, the “shrunken log2 fold change” value came out at 0.00416.

On to RRIRDRPPRLPRPRPRPRVMPRP, for which the “shrunken log2 fold change” value was found to be 0.106.

Consider RRIRERPPRLPRPRPRPEHTPRP, for which the “shrunken log2 fold change” value is -0.154.

Regarding RRIRNRPPRLPRPRPRPQTPPRP, the “shrunken log2 fold change” value is -0.00271.

For the sequence RRIRRRPPRLPRPRPRPFPFPRP, the “shrunken log2 fold change” value is -0.0334.

As for RRIRCRPPRLPRPRPRPFFTPRP, the “shrunken log2 fold change” value was -0.0887.

In the case of RRIRTRPPRLPRPRPRPVIMPRP, the “shrunken log2 fold change” value is -0.181.

Take RRIRQRPPRLPRPRPRPCYCPRP: the “shrunken log2 fold change” value is -0.338.

Consider RRIRWRPPRLPRPRPRPKDVPRP, for which the “shrunken log2 fold change” value is -0.0454.

As for RRIRERPPRLPRPRPRPNDNPRP, the “shrunken log2 fold change” value is -0.882.

Take RRIRLRPPRLPRPRPRPCHDPRP: the “shrunken log2 fold change” value was -0.116.

On to RRIRNRPPRLPRPRPRPHGLPRP, for which the “shrunken log2 fold change” value is -0.257.

Turning to RRIRFRPPRLPRPRPRPGTKPRP, the “shrunken log2 fold change” value is 0.478.

As to RRIRCRPPRLPRPRPRPHSSPRP, the “shrunken log2 fold change” value was -0.823.

On to RRIRPRPPRLPRPRPRPTVQPRP, for which the “shrunken log2 fold change” value worked out at 0.182.

As for RRIRSRPPRLPRPRPRPNFCPRP, the “shrunken log2 fold change” value turned out to be 0.0353.

On to RRIRTRPPRLPRPRPRPAHDPRP, for which the “shrunken log2 fold change” value amounted to 0.268.

Regarding RRIRRRPPRLPRPRPRPIRGPRP, the “shrunken log2 fold change” value came out at 0.1.

As for RRIRIRPPRLPRPRPRPIDYPRP, the “shrunken log2 fold change” value is -1.06.

Consider RRIRHRPPRLPRPRPRPHHLPRP, for which the “shrunken log2 fold change” value is -0.0119.

For RRIRMRPPRLPRPRPRPYDQPRP, the “shrunken log2 fold change” value worked out at 0.102.

In the case of RRIRIRPPRLPRPRPRPWLNPRP, the “shrunken log2 fold change” value was -0.562.

For the sequence RRIRNRPPRLPRPRPRPDLKPRP, the “shrunken log2 fold change” value worked out at 0.0748.

As to RRIRVRPPRLPRPRPRPGARPRP, the “shrunken log2 fold change” value was determined as 0.198.

With RRIRNRPPRLPRPRPRPTPPPRP, the “shrunken log2 fold change” value is 0.49.

With RRIRNRPPRLPRPRPRPLVQPRP, the “shrunken log2 fold change” value is -0.28.

As to RRIRRRPPRLPRPRPRPFPKPRP, the “shrunken log2 fold change” value turned out to be 0.0876.

For the sequence RRIRDRPPRLPRPRPRPHPMPRP, the “shrunken log2 fold change” value stood at 0.0468.

In the case of RRIRLRPPRLPRPRPRPAYRPRP, the “shrunken log2 fold change” value is -0.0396.

On to RRIRSRPPRLPRPRPRPGNMPRP, for which the “shrunken log2 fold change” value is -0.12.

On to RRIRERPPRLPRPRPRPSNAPRP, for which the “shrunken log2 fold change” value is -0.086.

For the sequence RRIRCRPPRLPRPRPRPEKNPRP, the “shrunken log2 fold change” value amounted to 0.165.

Regarding RRIRTRPPRLPRPRPRPYQGPRP, the “shrunken log2 fold change” value is -0.0132.

In the case of RRIRARPPRLPRPRPRPLRLPRP, the “shrunken log2 fold change” value stood at 0.809.

As to RRIRARPPRLPRPRPRPDYYPRP, the “shrunken log2 fold change” value is -0.135.

Turning to RRIRYRPPRLPRPRPRPRRPPRP, the “shrunken log2 fold change” value is -0.0739.

Regarding RRIRWRPPRLPRPRPRPLFYPRP, the “shrunken log2 fold change” value was -0.427.

On to RRIRMRPPRLPRPRPRPIVTPRP, for which the “shrunken log2 fold change” value is -0.00781.

For RRIRSRPPRLPRPRPRPGSSPRP, the “shrunken log2 fold change” value was -0.168.

As to RRIRLRPPRLPRPRPRPWWQPRP, the “shrunken log2 fold change” value was -0.179.

In the case of RRIRKRPPRLPRPRPRPIRRPRP, the “shrunken log2 fold change” value was 0.0536.

Consider RRIRKRPPRLPRPRPRPVSQPRP, for which the “shrunken log2 fold change” value was 0.147.

Turning to RRIRYRPPRLPRPRPRPQWWPRP, the “shrunken log2 fold change” value stood at 0.0898.

In the case of RRIRNRPPRLPRPRPRPTYWPRP, the “shrunken log2 fold change” value is -0.101.

RRIRTRPPRLPRPRPRPQNWPRP: the “shrunken log2 fold change” value was -0.265.

For the sequence RRIRKRPPRLPRPRPRPCAEPRP, the “shrunken log2 fold change” value turned out to be 0.951.

As for RRIRTRPPRLPRPRPRPGKGPRP, the “shrunken log2 fold change” value is 0.0141.

Regarding RRIRVRPPRLPRPRPRPIKWPRP, the “shrunken log2 fold change” value was -0.161.

Regarding RRIRGRPPRLPRPRPRPDSMPRP, the “shrunken log2 fold change” value amounted to 0.245.

Regarding RRIRNRPPRLPRPRPRPMYHPRP, the “shrunken log2 fold change” value is -0.248.

In the case of RRIRKRPPRLPRPRPRPYTVPRP, the “shrunken log2 fold change” value is -0.0362.

For RRIRVRPPRLPRPRPRPTWQPRP, the “shrunken log2 fold change” value is 0.27.

As to RRIRARPPRLPRPRPRPCRRPRP, the “shrunken log2 fold change” value is -0.085.

With RRIRSRPPRLPRPRPRPWQIPRP, the “shrunken log2 fold change” value was 0.0843.

Consider RRIRARPPRLPRPRPRPCFRPRP, for which the “shrunken log2 fold change” value was -0.0247.

RRIRTRPPRLPRPRPRPKAFPRP: the “shrunken log2 fold change” value is -0.149.

For RRIRRRPPRLPRPRPRPGLRPRP, the “shrunken log2 fold change” value came out at 0.338.

As to RRIRVRPPRLPRPRPRPEPCPRP, the “shrunken log2 fold change” value was -0.0507.

As for RRIRQRPPRLPRPRPRPVRFPRP, the “shrunken log2 fold change” value came to 0.728.

For the sequence RRIRMRPPRLPRPRPRPKCAPRP, the “shrunken log2 fold change” value is 2.89.

Take RRIRFRPPRLPRPRPRPDVGPRP: the “shrunken log2 fold change” value is -0.239.

Take RRIRSRPPRLPRPRPRPATSPRP: the “shrunken log2 fold change” value stood at 0.0483.

As to RRIRVRPPRLPRPRPRPTQYPRP, the “shrunken log2 fold change” value came out at 0.166.

In the case of RRIRIRPPRLPRPRPRPVYKPRP, the “shrunken log2 fold change” value was -0.834.

Regarding RRIRIRPPRLPRPRPRPTYHPRP, the “shrunken log2 fold change” value was -0.949.

As to RRIRSRPPRLPRPRPRPRHHPRP, the “shrunken log2 fold change” value was -0.163.

As to RRIRIRPPRLPRPRPRPYGIPRP, the “shrunken log2 fold change” value was -0.329.

Regarding RRIRLRPPRLPRPRPRPFIHPRP, the “shrunken log2 fold change” value is -0.807.

In the case of RRIRWRPPRLPRPRPRPTGNPRP, the “shrunken log2 fold change” value amounted to 0.2.

As to RRIRSRPPRLPRPRPRPKAEPRP, the “shrunken log2 fold change” value is 0.213.

Consider RRIRDRPPRLPRPRPRPSSHPRP, for which the “shrunken log2 fold change” value was -0.124.

For RRIRGRPPRLPRPRPRPCPLPRP, the “shrunken log2 fold change” value is -0.0214.

On to RRIRRRPPRLPRPRPRPTCFPRP, for which the “shrunken log2 fold change” value stood at 0.469.

For RRIRIRPPRLPRPRPRPKINPRP, the “shrunken log2 fold change” value is -0.881.

For the sequence RRIRIRPPRLPRPRPRPRFLPRP, the “shrunken log2 fold change” value is -0.216.

RRIRSRPPRLPRPRPRPYILPRP: the “shrunken log2 fold change” value is -0.69.

For RRIRPRPPRLPRPRPRPGAWPRP, the “shrunken log2 fold change” value stood at 0.132.

With RRIRPRPPRLPRPRPRPTDCPRP, the “shrunken log2 fold change” value amounted to 0.165.

Turning to RRIRIRPPRLPRPRPRPWPYPRP, the “shrunken log2 fold change” value is -0.163.

As for RRIRERPPRLPRPRPRPNCEPRP, the “shrunken log2 fold change” value was -0.155.

For the sequence RRIRERPPRLPRPRPRPYHWPRP, the “shrunken log2 fold change” value is -0.0488.

RRIRERPPRLPRPRPRPHNVPRP: the “shrunken log2 fold change” value was -0.42.

RRIRHRPPRLPRPRPRPLTNPRP: the “shrunken log2 fold change” value turned out to be 0.185.

In the case of RRIRMRPPRLPRPRPRPMSLPRP, the “shrunken log2 fold change” value is -0.207.

In the case of RRIRKRPPRLPRPRPRPHRNPRP, the “shrunken log2 fold change” value was -0.167.

As for RRIRHRPPRLPRPRPRPGYCPRP, the “shrunken log2 fold change” value is -0.507.

On to RRIRWRPPRLPRPRPRPYCHPRP, for which the “shrunken log2 fold change” value is -0.437.

Regarding RRIRDRPPRLPRPRPRPEQEPRP, the “shrunken log2 fold change” value was -0.0197.

For RRIRKRPPRLPRPRPRPLIQPRP, the “shrunken log2 fold change” value is 0.112.

Consider RRIRTRPPRLPRPRPRPKRHPRP, for which the “shrunken log2 fold change” value was 0.222.

Regarding RRIRRRPPRLPRPRPRPCIYPRP, the “shrunken log2 fold change” value was 0.0603.

For RRIRCRPPRLPRPRPRPTTWPRP, the “shrunken log2 fold change” value was -0.125.

RRIRSRPPRLPRPRPRPIWYPRP: the “shrunken log2 fold change” value is -0.373.

As for RRIRMRPPRLPRPRPRPQAGPRP, the “shrunken log2 fold change” value came to 0.214.

As for RRIRLRPPRLPRPRPRPCYDPRP, the “shrunken log2 fold change” value was 0.00693.

As to RRIRIRPPRLPRPRPRPNKSPRP, the “shrunken log2 fold change” value is -0.919.

For RRIRTRPPRLPRPRPRPLCIPRP, the “shrunken log2 fold change” value was -0.693.

On to RRIRQRPPRLPRPRPRPFVVPRP, for which the “shrunken log2 fold change” value is 0.0366.

With RRIRPRPPRLPRPRPRPNGGPRP, the “shrunken log2 fold change” value was -0.305.

On to RRIRDRPPRLPRPRPRPLNMPRP, for which the “shrunken log2 fold change” value was 0.111.

On to RRIRHRPPRLPRPRPRPGHTPRP, for which the “shrunken log2 fold change” value came to 0.105.

Take RRIRTRPPRLPRPRPRPSARPRP: the “shrunken log2 fold change” value was found to be 0.0995.

For RRIRMRPPRLPRPRPRPMMDPRP, the “shrunken log2 fold change” value worked out at 0.0325.
